B1: HDV Ribozyme (parent)
chain: GGCCGGCAUGGUCCCAGCCUCCUCGCUGGCGCCGGCUGGGCAACAUUCCGAGGGGACCGUCCCCUCGGUAAUGGCGAAUGGGACCCA

Variants of: B1
Assay: self-cleavage, relative activity (ratio to wild type); higher = more cleavage; co-transcriptional

Variant | self-cleavage
U27G A70U | 0.519
U27C C33A | 0
G28A C49G | 0
G28C U65A | 0.104
G28C U65G | 0.0665
G28U A51U | 0.166
G29A U47G | 0.0978
G29A C44U | 0.151
U27C G52C | 0.764
U27C G38C | 0.123
G29C C58U | 0.104
G29C C58G | 0.156
G28U G73U | 0.169
U27G A77G | 0.723
U27A C48U | 0.95
G29A G73U | 0.112
G29A G54U | 0.119
G28C G34A | 0.146
U27A G39U | 0.213
G28C G67A | 0.0707
G28C G67U | 0
G28C G67C | 0.0923
G29C A71G | 0
G29C A71U | 0.122

Variant | self-cleavage
G29C C33G | 0.185
G29C C33U | 0.0941
G29C | 0.1
G29A | 0.186
G28U G50A | 0.0791
G28C C32U | 0.19
U27G G29C | 0.733
U27G G29U | 0.739
G29A C85G | 0.119
U27A C62U | 0.935
G28C C84G | 0.0332
G28C C84A | 0.135
G28C G68A | 0.0475
G28C U37C | 0.101
G29A C75G | 0.0346
G28U C32U | 0.041
U27C C49U | 0.617
U27G G55A | 0.806
G28A C86U | 0.0369
G28A U37G | 0
G28U C62G | 0.0415
U27G G34A | 0.415
U27G G34C | 0.0692
U27A C84G | 0.957

Variant | self-cleavage
U27G C61A | 0.759
U27G C61G | 0.86
G28C C41A | 0.0573
U27A G54C | 0.707
G28C C85G | 0.111
G28C C85U | 0
G29A G82A | 0.109
G28C C75G | 0.113
G29C G40A | 0.0804
U27A C49U | 0.88
U27G C58U | 0.906
G28U C61A | 0.201
U27G U60G | 0.978
G28C G38A | 0.0415
G29C G50C | 0
G29C G50A | 0.0277
U27G A42C | 0.185
U27G A42U | 0.229
G28A G76C | 0.156
U27C G35A | 0.389
U27G A43U | 0.415
G28C G52A | 0.119
G28C G31C | 0
G28C G31A | 0.0739

Variant | self-cleavage
G28A G38A | 0.0647
U27G C66G | 0.629
U27A G40C | 0.151
G28U U60G | 0.123
U27C G73C | 0.332
G29C A51C | 0.231
G28U C41G | 0.116
G28U C41A | 0.138
G28A C32U | 0.0845
G29C G39U | 0.0992
G29C A78C | 0.0519
U27C G50U | 0.628
U27C G50A | 0.733
G29A C64A | 0.22
G29A C64G | 0.202
G28A G40C | 0.0702
G28A G40U | 0.0256
G29A G50A | 0.134
G29A G50U | 0.241
G28A G67A | 0.0936
U27A C86U | 0.966
U27C C86G | 1.2
U27C C61U | 0.978
U27C C61A | 0.898

Variant | self-cleavage
G28U G40C | 0.215
G28U G40U | 0.0277
U27G | 0.848
U27C | 0.8
U27C A78C | 0.0594
U27A A51G | 0.997
U27A G81A | 0.914
G28C U72A | 0.151
U27G G73C | 0.0978
G28A A45C | 0.0744
U27C C32U | 0.115
U27C C32G | 0.217
G28C A71C | 0.0475
G28C A45U | 0.142
G28U G35C | 0.13
G28U G35A | 0.0213
G29C C44G | 0
G29A C57G | 0.267
G28A C58G | 0.0369
G28A C66G | 0.138
G28A C44A | 0.104
G28A C44G | 0
G29C A83G | 0.0863
G29C A83U | 0.0462

Variant | self-cleavage
U27C A42G | 0
U27G G81U | 0.643
G28U C86U | 0.0594
G28U C86A | 0
G28A C48A | 0.0978
G28A C48G | 0
U27C G81U | 0.475
U27C G81A | 0.374
U27G C30U | 0.554
U27G C30G | 0.277
G28C C48G | 0.138
G28C C33G | 0.0519
G29A G52U | 0.153
G29A G52C | 0.197
G28C C62G | 0.0536
G28C C62A | 0.0346
G28A U46G | 0.0665
U27A G76C | 0.943
U27A G80U | 0.231
U27G C63G | 0.532
G28U G31A | 0.0554
G29C C62A | 0
G29C C62U | 0
G28U A45U | 0.193

Variant | self-cleavage
U27C U72G | 0.612
U27C U72A | 0.396
G28A A70C | 0.0554
G29C A43C | 0.0489
G28A A43C | 0.108
G28C U69C | 0.101
G28C U69A | 0.123
G28C U69G | 0.156
G28U C57G | 0.0773
U27A G73U | 0.261
G29A G59U | 0.149
U27G C41G | 0.802
U27G C41A | 0.969
G28C G29C | 0.0504
G28A G39U | 0.0692
U27A G74C | 0
G29C G38U | 0.0627
G28U U69G | 0.208
G29C C85U | 0.108
G29C C75U | 0.0287
G29C C75G | 0.131
G28C U46A | 0.107
G28U G68A | 0.182

— the RNAGym collection of RNA variant scans (doi:10.7554/elife.80360)
